Test results reported in article PMC3064766 (Nucleic Acids Research, 2010).

Experiments:
myc-tagged Cbp80p = target: T1, myc-tagged Cbp80p (S. cerevisiae, UniProt P34160 1-861); experiment: pull-down
T1 sequence (looked up): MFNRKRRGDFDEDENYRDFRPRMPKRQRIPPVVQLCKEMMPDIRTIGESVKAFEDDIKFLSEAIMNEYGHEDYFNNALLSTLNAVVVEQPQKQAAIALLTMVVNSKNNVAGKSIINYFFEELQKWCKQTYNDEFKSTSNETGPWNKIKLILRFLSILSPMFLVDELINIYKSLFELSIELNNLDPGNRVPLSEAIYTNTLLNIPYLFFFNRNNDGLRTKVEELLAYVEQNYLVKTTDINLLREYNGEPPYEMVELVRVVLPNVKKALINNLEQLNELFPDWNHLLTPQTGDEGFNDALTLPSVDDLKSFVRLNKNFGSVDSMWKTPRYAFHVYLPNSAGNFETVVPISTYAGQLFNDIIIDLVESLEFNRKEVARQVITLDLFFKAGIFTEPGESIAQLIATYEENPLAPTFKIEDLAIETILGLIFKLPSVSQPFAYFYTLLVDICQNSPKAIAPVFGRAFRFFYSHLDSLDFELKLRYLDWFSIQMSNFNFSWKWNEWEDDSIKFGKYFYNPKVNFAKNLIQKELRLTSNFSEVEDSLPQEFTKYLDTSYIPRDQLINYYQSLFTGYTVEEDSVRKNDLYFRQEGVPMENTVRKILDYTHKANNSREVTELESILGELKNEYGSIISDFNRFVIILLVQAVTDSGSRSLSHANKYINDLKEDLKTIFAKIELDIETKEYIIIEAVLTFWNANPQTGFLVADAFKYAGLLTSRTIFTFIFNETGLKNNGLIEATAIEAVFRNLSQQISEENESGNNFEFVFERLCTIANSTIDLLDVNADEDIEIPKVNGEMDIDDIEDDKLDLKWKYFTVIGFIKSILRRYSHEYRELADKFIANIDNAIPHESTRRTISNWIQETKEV

myc-tagged Mot1p = myc-tagged Mot1p (S. cerevisiae, UniProt P32333 1-1867); experiment: co-IP
Chain of myc-tagged Mot1p (P32333 whole entry): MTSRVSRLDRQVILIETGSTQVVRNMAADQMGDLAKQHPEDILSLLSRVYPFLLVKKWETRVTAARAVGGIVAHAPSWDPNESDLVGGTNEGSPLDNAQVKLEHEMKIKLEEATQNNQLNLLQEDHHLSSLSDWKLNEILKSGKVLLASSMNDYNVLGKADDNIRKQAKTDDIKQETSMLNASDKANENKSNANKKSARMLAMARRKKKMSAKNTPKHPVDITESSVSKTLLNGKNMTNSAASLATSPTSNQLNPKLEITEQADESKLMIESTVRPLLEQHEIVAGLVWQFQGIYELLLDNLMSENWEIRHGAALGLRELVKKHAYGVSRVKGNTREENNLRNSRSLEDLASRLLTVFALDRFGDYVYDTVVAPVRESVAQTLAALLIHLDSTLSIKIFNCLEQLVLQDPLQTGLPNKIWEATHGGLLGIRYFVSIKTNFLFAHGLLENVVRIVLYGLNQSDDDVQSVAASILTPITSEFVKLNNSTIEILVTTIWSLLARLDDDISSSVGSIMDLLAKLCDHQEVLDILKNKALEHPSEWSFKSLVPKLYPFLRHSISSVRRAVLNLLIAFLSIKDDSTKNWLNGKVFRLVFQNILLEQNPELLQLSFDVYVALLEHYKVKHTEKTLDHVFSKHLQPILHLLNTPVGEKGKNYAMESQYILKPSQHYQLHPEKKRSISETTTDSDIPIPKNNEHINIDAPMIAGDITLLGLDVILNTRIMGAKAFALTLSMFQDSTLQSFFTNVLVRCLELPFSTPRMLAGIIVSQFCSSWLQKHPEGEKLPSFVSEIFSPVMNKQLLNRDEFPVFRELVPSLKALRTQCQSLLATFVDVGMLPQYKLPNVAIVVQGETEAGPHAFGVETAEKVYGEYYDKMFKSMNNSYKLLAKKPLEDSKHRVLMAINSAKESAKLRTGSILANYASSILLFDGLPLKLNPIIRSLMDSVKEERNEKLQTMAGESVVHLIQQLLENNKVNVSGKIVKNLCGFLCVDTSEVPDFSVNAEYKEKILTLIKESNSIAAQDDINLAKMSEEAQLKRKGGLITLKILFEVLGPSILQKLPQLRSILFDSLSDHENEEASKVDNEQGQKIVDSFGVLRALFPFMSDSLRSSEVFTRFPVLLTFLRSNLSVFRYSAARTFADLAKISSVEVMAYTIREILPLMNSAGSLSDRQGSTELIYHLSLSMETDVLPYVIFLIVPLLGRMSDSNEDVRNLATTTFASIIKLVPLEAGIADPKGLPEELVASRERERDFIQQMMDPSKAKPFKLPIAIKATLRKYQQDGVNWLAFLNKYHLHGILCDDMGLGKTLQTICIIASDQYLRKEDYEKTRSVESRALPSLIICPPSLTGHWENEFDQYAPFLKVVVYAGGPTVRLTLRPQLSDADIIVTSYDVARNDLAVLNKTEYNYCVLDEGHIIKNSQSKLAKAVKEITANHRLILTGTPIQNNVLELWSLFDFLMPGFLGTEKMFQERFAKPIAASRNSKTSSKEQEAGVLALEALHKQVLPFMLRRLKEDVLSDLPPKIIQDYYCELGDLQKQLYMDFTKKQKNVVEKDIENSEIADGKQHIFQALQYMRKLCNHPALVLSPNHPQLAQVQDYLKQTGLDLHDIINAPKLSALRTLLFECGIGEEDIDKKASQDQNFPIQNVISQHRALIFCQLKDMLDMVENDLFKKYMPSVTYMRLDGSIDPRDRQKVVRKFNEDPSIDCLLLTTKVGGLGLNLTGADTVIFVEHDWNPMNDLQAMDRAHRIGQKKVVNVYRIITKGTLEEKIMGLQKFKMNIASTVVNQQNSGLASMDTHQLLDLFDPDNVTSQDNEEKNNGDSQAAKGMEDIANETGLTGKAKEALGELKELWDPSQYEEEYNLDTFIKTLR

binding result (myc-tagged Cbp80p): binds | binding result (myc-tagged Mot1p): binds
B1: HA-tagged Cbp20p (natural protein, S. cerevisiae, UniProt Q08920 1-208, looked up)
chain: MSLEEFDEVKYDHSTKRLDTPSRYLLRKARRNPNGLQELRESMKSSTIYVGNLSFYTSEEQIYELFSKCGTIKRIIMGLDRFKFTPCGFCFIIYSCPDEALNALKYLSDTKLDEKTITIDLDPGFEDGRQFGRGKSGGQVSDELRFDFDASRGGFAIPFAERVGVPHSRFDNSSSQSNTNNYIPPPDAMGTFRPGFDEEREDDNYVPQ
